In publication PMC6593408:

Assays:
Test in all cases: EMSA
Details in all cases: EMSA: pKa-matched buffers (ethanolamine-CAPSO pH 9.6, Tris-acetate pH 8.0, bis-Tris-ACES pH 6.7), 155 mM NaCl, 5 nM DNA, 2.5-20 or 40 uM protein, 30 min room …
[1] = biological target: T1, DsbA (Staphylococcus aureus USA300 LAC) (UniProt A0A0H2XFS3)
T1 sequence: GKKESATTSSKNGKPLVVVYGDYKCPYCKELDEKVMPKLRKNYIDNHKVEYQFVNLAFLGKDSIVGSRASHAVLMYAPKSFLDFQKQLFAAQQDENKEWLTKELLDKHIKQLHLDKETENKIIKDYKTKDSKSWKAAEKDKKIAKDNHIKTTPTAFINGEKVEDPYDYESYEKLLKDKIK

[2] = biological target: T2, CopL (0079) (Staphylococcus aureus USA300 LAC) (UniProt A0A0H2XFS1)
T2 sequence: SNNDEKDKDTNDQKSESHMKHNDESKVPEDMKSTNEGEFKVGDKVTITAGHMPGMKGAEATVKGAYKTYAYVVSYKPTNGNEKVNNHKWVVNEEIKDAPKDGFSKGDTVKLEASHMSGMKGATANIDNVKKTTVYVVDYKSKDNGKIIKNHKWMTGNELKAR

[3] = biological target: T3, 0100 (Csa1A) (Staphylococcus aureus USA300 LAC) (UniProt Q2FKG1)
T3 sequence: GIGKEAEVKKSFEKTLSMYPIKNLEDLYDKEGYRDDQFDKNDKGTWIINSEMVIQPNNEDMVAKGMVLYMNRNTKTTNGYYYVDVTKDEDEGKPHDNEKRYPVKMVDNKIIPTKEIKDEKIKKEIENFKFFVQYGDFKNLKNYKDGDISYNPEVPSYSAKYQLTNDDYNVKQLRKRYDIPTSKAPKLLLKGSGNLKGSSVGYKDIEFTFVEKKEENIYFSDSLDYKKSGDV

Measured: binding

GTTCATTATGAAGTCCCTCCAAAAATCATTTGATAATATAGTTTACAGCTATAATTGTAAACGCTATCATAAAATGTAACAATATCTTTTTGAAAATTGTAGTCATATTTATGTATAATTAATGAAAATGTTTTTCAAAATCAATAGAAATGGAGTGAGTAAGGTGTATTACATCGCAATCGATATTGGAGGCACTCAAATTAAATCGGCAGTTATTGATAAGCAATTGAATATGTTTGACTATCAACAAATATCAACG (double strand) [259-bp nanA promoter probe]
binds: all assays above
